Test results taken from publication PMC4072508, “Genome-Wide Prediction and Validation of Peptides That Bind Human Prosurvival Bcl-2 Proteins” (PLoS Computational Biology, 2014).

T1: Mcl-1, Q07820
T1 chain: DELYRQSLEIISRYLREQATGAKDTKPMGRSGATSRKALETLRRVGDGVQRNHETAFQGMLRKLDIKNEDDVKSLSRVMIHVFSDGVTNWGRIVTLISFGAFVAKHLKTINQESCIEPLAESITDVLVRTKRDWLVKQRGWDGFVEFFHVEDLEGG

T2: Bcl-w, Q92843
T2 chain: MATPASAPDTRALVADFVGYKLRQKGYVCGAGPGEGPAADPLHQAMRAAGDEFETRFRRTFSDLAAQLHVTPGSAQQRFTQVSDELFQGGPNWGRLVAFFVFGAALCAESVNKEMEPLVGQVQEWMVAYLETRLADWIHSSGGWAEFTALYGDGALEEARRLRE

T3: Bfl-1, Q16548
T3 chain: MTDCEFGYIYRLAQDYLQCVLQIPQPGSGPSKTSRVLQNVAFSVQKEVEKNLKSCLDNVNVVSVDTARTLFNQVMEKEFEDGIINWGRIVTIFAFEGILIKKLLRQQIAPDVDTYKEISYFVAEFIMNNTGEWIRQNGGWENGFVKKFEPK


Legend:
Assay in all cases: peptide SPOT array, c-Myc-tagged receptor at 1 uM or 100 nM, anti-c-Myc-Cy3
Bcl-2, P10415 = biological target: Bcl-2, P10415
Mcl-1, Q07820 = biological target: T1, Mcl-1, Q07820
Bcl-w, Q92843 = biological target: T2, Bcl-w, Q92843
Bcl-xL, Q07817 = biological target: Bcl-xL, Q07817
Bfl-1, Q16548 = biological target: T3, Bfl-1, Q16548

Chain of Bcl-xL, Q07817 (Q07817 1-209): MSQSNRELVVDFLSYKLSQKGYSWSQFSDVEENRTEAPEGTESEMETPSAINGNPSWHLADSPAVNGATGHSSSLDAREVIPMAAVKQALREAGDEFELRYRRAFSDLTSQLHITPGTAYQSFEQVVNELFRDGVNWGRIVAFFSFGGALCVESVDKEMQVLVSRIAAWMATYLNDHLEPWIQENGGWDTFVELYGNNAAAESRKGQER
Chain of Bcl-2, P10415 (P10415 1-217): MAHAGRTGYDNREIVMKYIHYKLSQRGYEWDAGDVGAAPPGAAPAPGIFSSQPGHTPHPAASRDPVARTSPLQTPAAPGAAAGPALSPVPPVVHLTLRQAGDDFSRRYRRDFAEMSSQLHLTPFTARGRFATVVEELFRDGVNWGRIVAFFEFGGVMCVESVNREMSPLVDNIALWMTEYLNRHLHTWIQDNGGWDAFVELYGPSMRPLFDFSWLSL

| Binder | SPOT signal as a fraction of Bim BH3's signal on the same receptor and array (Bcl-2, P10415) | SPOT signal as a fraction of Bim BH3's signal on the same receptor and array (Mcl-1, Q07820) | SPOT signal as a fraction of Bim BH3's signal on the same receptor and array (Bcl-w, Q92843) | SPOT signal as a fraction of Bim BH3's signal on the same receptor and array (Bcl-xL, Q07817) | SPOT signal as a fraction of Bim BH3's signal on the same receptor and array (Bfl-1, Q16548) |
| --- | --- | --- | --- | --- | --- |
| QLRLSDAGQYLCQAGDDSNSNKKNAD [PIGR] | 0.01 | 0.02 | 0.02 | 0.03 | 0.03 |
| VDVIDDHERGLIRNGRDFLLALERQG [DEDD] | 0.01 | 0.04 | 0.02 | 0.03 | 0.02 |
| VFERCELARTLKRLGMDGYRGISLAN [LYZ] | 0.27 | 0.38 | 0.69 | 0.65 | 0.74 |
| NWFGDWSTEALYQVGKEFTSKMDLEK [DYNC1H1] | 0.02 | 0.03 | 0.03 | 0.04 | 0.03 |
| ALNAQPSAEELSKIADSVNLPLDVVK [ZEB1] | 0.01 | 0.02 | 0.01 | 0.02 | 0.01 |

Results, then the binder that gave them:

| SPOT signal as a fraction of Bim BH3's signal on the same receptor and array (Bcl-2, P10415) | SPOT signal as a fraction of Bim BH3's signal on the same receptor and array (Mcl-1, Q07820) | SPOT signal as a fraction of Bim BH3's signal on the same receptor and array (Bcl-w, Q92843) | SPOT signal as a fraction of Bim BH3's signal on the same receptor and array (Bcl-xL, Q07817) | SPOT signal as a fraction of Bim BH3's signal on the same receptor and array (Bfl-1, Q16548) | Binder |
| --- | --- | --- | --- | --- | --- |
| 0.02 | 0.04 | 0.1 | 0.07 | 0.06 | YTCRGHIPGFLQTTADEFCFYYARKD [HHIP] |
| 0.59 | 0.86 | 1.8 | 1.18 | 1.61 | CLSCDLCGCRLGEVGRRLYYKLGRKL [LMO2] |
| 0.02 | 0.06 | 0.07 | 0.16 | 0.03 | SQRGTDFSVLLSSAGDSFSQFRFAEE [AVEN] |
| 0.06 | 0.13 | 0.13 | 0.1 | 0.33 | DISALTASNLLKKYAEKYSGILEGPV [FIGN] |
| 0.01 | 0.02 | 0.02 | 0.02 | 0.01 | GVAASDFIRSLDHCGDLALEGVFSHK [NLRC4] |
| 0.01 | 0.09 | 0.33 | 0.16 | 0.06 | DAIIQMIVELLKRVGDQWEEEQSLAS [C6orf222] |
